Test results from patent US20220033519A1 (NATIONAL RESEARCH COUNCIL OF CANADA, published 2022).

T1: soluble and secreted FUT8 (sFUT8) enzyme (aa 87-575; UniProtKB #Q9BYC5) with C-terminal polyhistidine tag (UniProt Q9BYC5 87-575)
T1 sequence: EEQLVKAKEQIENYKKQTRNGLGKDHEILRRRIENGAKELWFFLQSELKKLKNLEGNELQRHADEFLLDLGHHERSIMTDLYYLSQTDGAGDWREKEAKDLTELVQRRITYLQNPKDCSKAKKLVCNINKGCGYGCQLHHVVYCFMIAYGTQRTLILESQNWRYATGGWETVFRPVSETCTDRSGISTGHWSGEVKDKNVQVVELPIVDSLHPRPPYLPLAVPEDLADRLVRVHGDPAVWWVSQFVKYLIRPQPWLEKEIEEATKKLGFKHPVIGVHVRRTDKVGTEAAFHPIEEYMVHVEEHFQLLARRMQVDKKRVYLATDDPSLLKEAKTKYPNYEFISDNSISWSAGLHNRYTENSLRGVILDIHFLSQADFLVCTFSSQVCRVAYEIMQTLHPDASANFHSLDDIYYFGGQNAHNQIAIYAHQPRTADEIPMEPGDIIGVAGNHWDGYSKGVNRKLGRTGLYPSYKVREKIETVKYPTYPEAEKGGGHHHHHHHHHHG

B1: anti-FUT8 monoclonal antibody 1D2 (hybridoma) (antibody, V domains shown)
VH: QVQLKESGPGLVAPSQSLSITCTVSGFSLTGYGVNWVRQPPGKGLEWLGMIWGDGSTDYNSALKSRLSISKDNSKSQVFLKMNSLQTDDTASYYCARDFYDGYLYAMDYWGQGTSVTVSSAS
VL: DIVMTQSQKFMSTSLGDRVSVTCKASQNVGSYVAWYQQKPGQSPKALIYSASYRYSGVPDRFAGSGSGTDFTLTISNVQSEDLAEYFCQQYYTYPYTFGGGTWSTRLASWAFRSL
B2: anti-FUT8 monoclonal antibody 1H9 (hybridoma) (antibody, V domains shown)
VH: EVQLQQSGPELVKPGASVKMSCKASGYIFTDYVMHWVKQSNGKSLEWIGYINPYNDYSNYNQKFKGKATLTVDKSSNTAYMQLNSLTSEDSAVYFCARSGDVWLAYWGQGTLVTISA
VL: DIVLTQSPASLAISLGQRATISCRASKSVSTSGYSYMHWYQQKPGQPPRLLIYLASNLESGVPARFSGSGSGTDFTLNIHPVEEEDGATYYCQHSRELPWTFGGGT
B3: anti-FUT8 monoclonal antibody 5C9 (hybridoma) (antibody, V domains shown)
VH: QVQLKESGPGLVAPSQSLSITCTVSGFSLTGYGVNWVRQPPGKGLEWLGTIWGDGSTDYNSALKSRLSISKDNSKTQVFLKMHSLQTDDTAIYYCARGGYDDYFGYAMDYWGQGTSVTVSS
VL: DIVMTQSQKFMSTVVGDRVSVTCKASQNVGTNVAWYQQKPGQSPKALIYSASYRYSGVPDRLTGSGSGTDFTLTFSYVQSEDLAEYFCQQYYTYPYTFGGGTKLEIK

Biological target: T1, soluble and secreted FUT8 (sFUT8) …
Assay: cell-based or functional assay

| Binder | FUT8 enzymatic activity (% inhibition) [%] |
| --- | --- |
| B1 | 82 |
| B2 | 60 |
| B3 | 87 |
